Results as given in patent publication US20240417754.

Test system: T1, Pf80 large serine recombinase
T1 sequence: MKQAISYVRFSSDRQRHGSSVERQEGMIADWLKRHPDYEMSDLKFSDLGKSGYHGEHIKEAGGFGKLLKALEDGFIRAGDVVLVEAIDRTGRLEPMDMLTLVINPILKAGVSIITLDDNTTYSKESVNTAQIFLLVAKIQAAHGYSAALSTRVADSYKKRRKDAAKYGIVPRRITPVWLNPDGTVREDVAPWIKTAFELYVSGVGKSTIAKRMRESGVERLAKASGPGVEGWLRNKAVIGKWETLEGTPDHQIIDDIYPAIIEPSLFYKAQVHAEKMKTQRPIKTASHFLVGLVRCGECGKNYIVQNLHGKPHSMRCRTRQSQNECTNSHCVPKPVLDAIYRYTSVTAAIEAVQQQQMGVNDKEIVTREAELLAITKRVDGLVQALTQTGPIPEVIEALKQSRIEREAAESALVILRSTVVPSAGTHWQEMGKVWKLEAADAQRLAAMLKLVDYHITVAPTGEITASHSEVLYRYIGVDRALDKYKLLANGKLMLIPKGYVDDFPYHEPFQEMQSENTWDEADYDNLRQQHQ
Test: cell_activity
Conditions: share of unique integration reads at predicted site

## Pf80 attH (FKBP2 exon)
  on-target integration read share: 34.3%
